Data from the supplement of paper PMC6757056.
± gives the standard deviation of the averaged measurements.

B1: library; a variant is named by its letters at N, in order (parent)
chain: GCUGUCACCGGUGUAUUACCCUAGUGGUCGACCGGUCUGAUGAGUCUNNNNNNAGACGAAACAGC

Legend:
[1] = variants of: B1; test: normalized RNA/DNA level with ligand (relative to sTRSVctl = 100) (log10 (% of sTRSVctl)); ligand: hypoxanthine (xanthine aptamer); higher = less ribozyme self-cleavage, higher mRNA level; details: ligand concentration (+) RNA-Seq: 5 mM, HEK293T, reporter: mCherry (pCS4076), ligand present: yes
Summary of the method: (§1)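 Ribozyme switch library plasmids linked to reporters were introduced into HEK293T cells at 4 µg per 6-well well, with ligand, if any, added 1 h before. Total RNA was extracted with EDTA 72 h later, reverse-transcribed, amplified, barcoded and sequenced. RNA level was computed from RNA over DNA reads relative to a spiked-in non-cleaving sequence or the top sequences, then scaled and log-transformed. The top set was 25 sequences, values were ×100 and log10, and the cutoff was ≥100 DNA reads.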

[2] = variants of: B1; test: normalized RNA/DNA level without ligand (relative to sTRSVctl = 100) (log10 (% of sTRSVctl)); ligand: hypoxanthine (xanthine aptamer); higher = less ribozyme self-cleavage, higher mRNA level; details: HEK293T, reporter: mCherry (pCS4076), ligand present: no
Summary of the method: as §1

Row | Variant | normalized RNA/DNA level with ligand (log10) [1] | normalized RNA/DNA level without ligand (log10) [2]
1 | GCUGCU | 1.92 ± 0.076 | 1.884 ± 0.013
2 | GCUGCA | 1.98 ± 0.021 | 1.83 ± 0.034
3 | GCUGCC | 1.96 ± 0.15 | 1.83 ± 0.093
4 | UCUUCC | 2.022 ± 0.017 | 1.92 ± 0.024
5 | UCUUCA | 1.97 ± 0.11 | 1.8691 ± 0.00053
6 | UCUUCG | 1.93 ± 0.086 | 1.7 ± 0.11
7 | UCUUCU | 1.979 ± 0.0024 | 1.94 ± 0.099
8 | ACUAGU | 1.88 ± 0.052 | 1.71 ± 0.07
9 | ACUAGC | 1.881 ± 0.0075 | 1.79 ± 0.075
10 | GCUUGC | 1.96 ± 0.033 | 1.87 ± 0.048
11 | GCUUGU | 1.93 ± 0.0067 | 1.72 ± 0.023
12 | UGAAAA | 1.921 ± 0.0047 | 1.836 ± 0.015
13 | UGAAAG | 1.862 ± 0.017 | 1.72 ± 0.039
14 | UGAAAU | 1.907 ± 0.005 | 1.76 ± 0.005
15 | GCGUCG | 1.89 ± 0.037 | 1.53 ± 0.041
16 | GCGUCU | 1.98 ± 0.085 | 1.772 ± 0.0055
17 | GCGUCC | 1.93 ± 0.029 | 1.59 ± 0.039
18 | GCGUCA | 1.96 ± 0.023 | 1.68 ± 0.069
19 | ACGGUU | 1.84 ± 0.024 | 1.36 ± 0.064
20 | CCUGCA | 2.011 ± 0.0089 | 1.9 ± 0.041
21 | CCUGCC | 2.04 ± 0.026 | 2.01 ± 0.023
22 | CCUGCU | 2.02 ± 0.049 | 1.98 ± 0.08
23 | CCUGAU | 1.909 ± 0.004 | 1.821 ± 0.013
24 | CCUGAA | 1.98 ± 0.078 | 1.78 ± 0.075

Row | Variant | normalized RNA/DNA level with ligand (log10) [1] | normalized RNA/DNA level without ligand (log10) [2]
25 | CCUGAC | 1.92 ± 0.1 | 1.83 ± 0.035
26 | CCGUAA | 1.95 ± 0.098 | 1.67 ± 0.1
27 | CCGUAC | 1.92 ± 0.047 | 1.66 ± 0.037
28 | CCGUAG | 1.82 ± 0.024 | 1.35 ± 0.099
29 | CCGUAU | 1.91 ± 0.033 | 1.749 ± 0.0044
30 | GCUACU | 1.95 ± 0.059 | 1.89 ± 0.026
31 | GCUACA | 1.95 ± 0.02 | 1.85 ± 0.025
32 | UCUACC | 1.96 ± 0.029 | 1.913 ± 0.0037
33 | UCUACU | 1.97 ± 0.067 | 1.917 ± 0.014
34 | UCUACG | 1.9 ± 0.07 | 1.733 ± 0.011
35 | UCUACA | 1.94 ± 0.057 | 1.846 ± 0.017
36 | UCUAUA | 1.893 ± 0.016 | 1.858 ± 0.013
37 | UCUAUU | 1.93 ± 0.057 | 1.86 ± 0.023
38 | CGAAAG | 1.94 ± 0.04 | 1.839 ± 0.0055
39 | UCGUCU | 1.93 ± 0.049 | 1.87 ± 0.062
40 | UCGUCC | 1.98 ± 0.026 | 1.95 ± 0.0024
41 | UCGUCG | 1.99 ± 0.042 | 1.85 ± 0.049
42 | UCGUCA | 1.986 ± 0.016 | 1.807 ± 0.0051
43 | ACUCAC | 1.994 ± 0.0082 | 1.97 ± 0.013
44 | ACUCAA | 1.92 ± 0.073 | 1.748 ± 0.0042
45 | ACUCAG | 1.89 ± 0.04 | 1.529 ± 0.0011
46 | CCUUUA | 1.948 ± 0.019 | 1.84 ± 0.035
47 | CCUUUG | 1.96 ± 0.09 | 1.81 ± 0.076
48 | CCUUUU | 1.966 ± 0.019 | 1.892 ± 0.018

Row | Variant | normalized RNA/DNA level with ligand (log10) [1] | normalized RNA/DNA level without ligand (log10) [2]
49 | CCUUUC | 2 ± 0.1 | 1.98 ± 0.046
50 | GCUGGA | 1.904 ± 0.011 | 1.8 ± 0.074
51 | GCUGGU | 1.96 ± 0.034 | 1.824 ± 0.013
52 | CCUCCU | 1.95 ± 0.074 | 1.96 ± 0.026
53 | CCUCCA | 1.94 ± 0.026 | 1.95 ± 0.067
54 | CCUACG | 1.94 ± 0.073 | 1.9 ± 0.041
55 | CCUACU | 1.98 ± 0.13 | 1.96 ± 0.021
56 | CCUACC | 1.937 ± 0.0065 | 1.86 ± 0.049
57 | GCUCAG | 1.86 ± 0.019 | 1.31 ± 0.057
58 | GCUCAU | 1.95 ± 0.026 | 1.801 ± 0.018
59 | GCUCAC | 1.94 ± 0.08 | 1.84 ± 0.053
60 | CCGUCA | 1.909 ± 0.008 | 1.855 ± 0.0032
61 | CCGUCC | 1.98 ± 0.067 | 1.91 ± 0.057
62 | CCGUCG | 1.89 ± 0.061 | 1.689 ± 0.011
63 | CCGUCU | 1.97 ± 0.036 | 1.83 ± 0.063
64 | UCUCAA | 1.92 ± 0.055 | 1.679 ± 0.0047
65 | UCUCAC | 2 ± 0.055 | 1.77 ± 0.047
66 | UCUCAU | 1.975 ± 0.012 | 1.887 ± 0.01
67 | GCUAGG | 1.83 ± 0.039 | 1.48 ± 0.02
68 | GCUAGA | 1.92 ± 0.031 | 1.71 ± 0.029
69 | GCUAGC | 1.89 ± 0.1 | 1.79 ± 0.079
70 | GCUAGU | 1.92 ± 0.11 | 1.722 ± 0.0072
71 | CCUCAU | 1.97 ± 0.078 | 1.87 ± 0.02
72 | CCUCAC | 1.99 ± 0.027 | 2.07 ± 0.14

Row | Variant | normalized RNA/DNA level with ligand (log10) [1] | normalized RNA/DNA level without ligand (log10) [2]
73 | CCUCAA | 1.929 ± 0.0046 | 1.84 ± 0.025
74 | ACUACA | 1.92 ± 0.0088 | 1.841 ± 0.014
75 | ACUACC | 2 ± 0.03 | 1.9024 ± 0.00086
76 | CCUCUA | 1.98 ± 0.05 | 1.926 ± 0.015
77 | CCUCUG | 1.96 ± 0.038 | 1.98 ± 0.035
78 | CCUCUU | 2.011 ± 0.018 | 1.9823 ± 0.00045
79 | GCUCGU | 1.96 ± 0.042 | 1.83 ± 0.048
80 | CCUAAC | 1.93 ± 0.042 | 1.825 ± 0.0078
81 | CCUAAG | 1.91 ± 0.05 | 1.66 ± 0.013
82 | CCUAAU | 1.94 ± 0.12 | 1.86 ± 0.1
83 | ACUGUU | 1.9396 ± 0.00019 | 1.81 ± 0.05
84 | ACUGUA | 1.93 ± 0.062 | 1.78 ± 0.036
85 | ACUGUC | 1.99 ± 0.026 | 1.898 ± 0.0079
86 | CCUUGU | 1.93 ± 0.15 | 1.88 ± 0.041
87 | CCUUGA | 1.97 ± 0.09 | 1.86 ± 0.026
88 | ACUUCU | 1.91 ± 0.12 | 1.889 ± 0.0063
89 | ACUUCA | 1.95 ± 0.025 | 1.922 ± 0.013
90 | ACUUCC | 1.928 ± 0.015 | 1.923 ± 0.0089
91 | ACUGGC | 1.96 ± 0.036 | 1.844 ± 0.016
92 | ACUGGG | 1.859 ± 0.0034 | 1.44 ± 0.086
93 | GCGUGC | 1.949 ± 0.016 | 1.619 ± 0.006
94 | GGAAAU | 1.9 ± 0.071 | 1.77 ± 0.053
95 | GGAAAC | 1.939 ± 0.018 | 1.84 ± 0.014
96 | ACUAUC | 1.98 ± 0.03 | 1.95 ± 0.046

Row | Variant | normalized RNA/DNA level with ligand (log10) [1] | normalized RNA/DNA level without ligand (log10) [2]
97 | ACUAUG | 1.89 ± 0.021 | 1.48 ± 0.015
98 | ACUAUU | 1.928 ± 0.012 | 1.82 ± 0.03
99 | GCUAUC | 1.966 ± 0.016 | 1.84 ± 0.058
100 | GCUAUA | 1.93 ± 0.03 | 1.89 ± 0.034
101 | UCUGAU | 1.94 ± 0.066 | 1.77 ± 0.096
102 | UCUGAC | 1.99 ± 0.031 | 1.8115 ± 0.00067
103 | UCUGAG | 1.927 ± 0.0088 | 1.58 ± 0.035
104 | GGAACA | 1.942 ± 0.0069 | 1.764 ± 0.0065
105 | GGAACC | 1.957 ± 0.0033 | 1.86 ± 0.021
106 | GGAACU | 1.93 ± 0.031 | 1.9403 ± 0.00023
107 | CCUAGC | 1.91 ± 0.08 | 1.842 ± 0.0069
108 | CCUAGG | 1.86 ± 0.055 | 1.77 ± 0.046
109 | CCUAGU | 1.919 ± 0.0097 | 1.872 ± 0.013
110 | CCUAGA | 1.962 ± 0.016 | 1.84 ± 0.057
111 | ACUUAC | 1.93 ± 0.046 | 1.84 ± 0.052
112 | ACUUAU | 1.9 ± 0.029 | 1.729 ± 0.014
113 | ACGUCC | 1.957 ± 0.0037 | 1.847 ± 0.015
114 | ACGUCU | 1.95 ± 0.042 | 1.65 ± 0.066
115 | ACGUCA | 1.94 ± 0.038 | 1.64 ± 0.032
116 | ACGUCG | 1.88 ± 0.041 | 1.41 ± 0.11
